Test results reported in patent publication US20180155451A1 (published 2018).

T1: FcγRIIb extracellular domain with C-terminal His tag (human, UniProt P31994 43-217)
T1 construct: extracellular domain; also called FcgRIIb
T1 sequence (looked up): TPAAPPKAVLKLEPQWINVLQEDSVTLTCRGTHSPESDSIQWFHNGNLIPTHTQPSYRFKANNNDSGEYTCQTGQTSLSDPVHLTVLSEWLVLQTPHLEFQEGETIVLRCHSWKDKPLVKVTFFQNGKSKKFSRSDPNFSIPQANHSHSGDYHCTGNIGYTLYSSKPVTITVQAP

T2: FcγRIIa type R extracellular domain with C-terminal His tag (human, UniProt P12318 34-217)
T2 construct: extracellular domain; also called FcgRIIa R; FcγRIIa R
T2 sequence (looked up): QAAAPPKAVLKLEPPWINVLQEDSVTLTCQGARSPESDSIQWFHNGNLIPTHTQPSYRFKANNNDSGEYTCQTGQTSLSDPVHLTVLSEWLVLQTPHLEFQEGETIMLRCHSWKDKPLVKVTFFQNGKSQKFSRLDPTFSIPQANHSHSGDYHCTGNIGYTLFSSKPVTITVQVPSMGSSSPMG

T3: FcγRIIa type H extracellular domain with C-terminal His tag (human, UniProt P12318 34-217)
T3 construct: extracellular domain; also called FcgRIIa H; FcγRIIa H
T3 sequence (looked up): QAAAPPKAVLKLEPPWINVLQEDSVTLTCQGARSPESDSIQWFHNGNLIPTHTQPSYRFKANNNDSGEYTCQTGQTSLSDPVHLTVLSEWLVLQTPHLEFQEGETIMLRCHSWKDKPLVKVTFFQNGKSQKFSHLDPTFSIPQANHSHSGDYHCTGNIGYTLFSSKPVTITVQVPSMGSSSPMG

B1: GpH7-Kn045/GpH7-Hl048/GpL16-k0 (antibody, human IgG1, kappa)
heavy 1: QVQLVQSGAEVKKPGASVTVSCKASGYTFTDYEMHWIRQPPGEGLEWIGAIDPKTGDTAYSESFQDRVTLTADKSTSTAYMELSSLTSEDTAVYYCTRFYSYTYWGQGTLVTVSSASTKGPSVFPLAPSSKSTSGGTAALGCLVKDYFPEPVTVSWNSGALTSGVHTFPAVLQSSGLYSLSSVVTVPSSSLGTQTYICNVNHKPSNTKVDKKVEPKSCDKTHTCPPCPAPEYYAGPSVFLFPPKPKDTLMISRTPEVTCVVVDVSDEDPEVKFNWYVDGVEVHNAKTKPREEQYNATYRVVSVLTVLHQDWLNGKEYKCKVSNKALPAPIEKTISKAKGQPREPQVCTLPPSRDELTKNQVSLWCLVKGFYPSDIAVEWESNGQPENNYKTTPPVLDSDGSFFLYSKLTVDKSRWQQGNVFSCSVMHEALHNHYTQKSLSLSP
heavy 2: QVQLVQSGAEVKKPGASVTVSCKASGYTFTDYEMHWIRQPPGEGLEWIGAIDPKTGDTAYSESFQDRVTLTADKSTSTAYMELSSLTSEDTAVYYCTRFYSYTYWGQGTLVTVSSASTKGPSVFPLAPSSKSTSGGTAALGCLVKDYFPEPVTVSWNSGALTSGVHTFPAVLQSSGLYSLSSVVTVPSSSLGTQTYICNVNHKPSNTKVDKKVEPKSCDKTHTCPPCPAPELLAGPDVFLFPPKPKDTLMISRTPEVTCVVVDVSHEDPEVKFNWYVDGVEVHNAKTKPREEQYNSTYRVVSVLTVLHQDWLNGKEYKCKVSNKALPKPEEKTISKAKGQPREPQVYTLPPSRCELTKNQVSLSCAVKGFYPSDIAVEWESNGQPENNYKTTPPVLDSDGSFFLVSKLTVDKSRWQQGNVFSCSVMHEALHNHYTQKSLSLSP
light: DIVMTQSPLSLPVTPGEPASISCQASESLVHSNRNTYLHWYLQKPGQSPQLLIYKVSNRFSGVPDRFSGSGSGTDFTLKISRVEAEDVGVYYCSQNTHVPPTFGQGTKVEIERTVAAPSVFIFPPSDEQLKSGTASVVCLLNNFYPREAKVQWKVDNALQSGNSQESVTEQDSKDSTYSLSSTLTLSKADYEKHKVYACEVTHQGLSSPVTKSFNRGEC
notes: Heterodimerized anti-glypican-3 IgG1; also called Kn045/Hl048
B2: GpH7-Kn045/GpH7-Hl055/GpL16-k0 (antibody, human IgG1, kappa)
heavy 1: QVQLVQSGAEVKKPGASVTVSCKASGYTFTDYEMHWIRQPPGEGLEWIGAIDPKTGDTAYSESFQDRVTLTADKSTSTAYMELSSLTSEDTAVYYCTRFYSYTYWGQGTLVTVSSASTKGPSVFPLAPSSKSTSGGTAALGCLVKDYFPEPVTVSWNSGALTSGVHTFPAVLQSSGLYSLSSVVTVPSSSLGTQTYICNVNHKPSNTKVDKKVEPKSCDKTHTCPPCPAPEYYAGPSVFLFPPKPKDTLMISRTPEVTCVVVDVSDEDPEVKFNWYVDGVEVHNAKTKPREEQYNATYRVVSVLTVLHQDWLNGKEYKCKVSNKALPAPIEKTISKAKGQPREPQVCTLPPSRDELTKNQVSLWCLVKGFYPSDIAVEWESNGQPENNYKTTPPVLDSDGSFFLYSKLTVDKSRWQQGNVFSCSVMHEALHNHYTQKSLSLSP
heavy 2: QVQLVQSGAEVKKPGASVTVSCKASGYTFTDYEMHWIRQPPGEGLEWIGAIDPKTGDTAYSESFQDRVTLTADKSTSTAYMELSSLTSEDTAVYYCTRFYSYTYWGQGTLVTVSSASTKGPSVFPLAPSSKSTSGGTAALGCLVKDYFPEPVTVSWNSGALTSGVHTFPAVLQSSGLYSLSSVVTVPSSSLGTQTYICNVNHKPSNTKVDKKVEPKSCDKTHTCPPCPAPELLAGPDVFLFPPKPKDTLMISRTPEVTCVVVDVSHEDPEVKFNWYVDGVEVHNAKTKPREELYNSTYRVVSVLTVLHQDWLNGKEYKCKVSNKALPMPEEKTISKAKGQPREPQVYTLPPSRCELTKNQVSLSCAVKGFYPSDIAVEWESNGQPENNYKTTPPVLDSDGSFFLVSKLTVDKSRWQQGNVFSCSVMHEALHNHYTQKSLSLSP
light: DIVMTQSPLSLPVTPGEPASISCQASESLVHSNRNTYLHWYLQKPGQSPQLLIYKVSNRFSGVPDRFSGSGSGTDFTLKISRVEAEDVGVYYCSQNTHVPPTFGQGTKVEIERTVAAPSVFIFPPSDEQLKSGTASVVCLLNNFYPREAKVQWKVDNALQSGNSQESVTEQDSKDSTYSLSSTLTLSKADYEKHKVYACEVTHQGLSSPVTKSFNRGEC
notes: Heterodimerized anti-glypican-3 IgG1; also called Kn045/Hl055
B3: GpH7-Kn056/GpH7-Hl055/GpL16-k0 (antibody, human IgG1, kappa)
heavy 1: QVQLVQSGAEVKKPGASVTVSCKASGYTFTDYEMHWIRQPPGEGLEWIGAIDPKTGDTAYSESFQDRVTLTADKSTSTAYMELSSLTSEDTAVYYCTRFYSYTYWGQGTLVTVSSASTKGPSVFPLAPSSKSTSGGTAALGCLVKDYFPEPVTVSWNSGALTSGVHTFPAVLQSSGLYSLSSVVTVPSSSLGTQTYICNVNHKPSNTKVDKKVEPKSCDKTHTCPPCPAPEYYAGPSVFLFPPKPKDTLMISRTPEVTCVVVDVSDEDPEVKFNWYVDGVEVHNAKTKPREELYNATYRVVSVLTVLHQDWLNGKEYKCKVSNKALPAPIEKTISKAKGQPREPQVCTLPPSRDELTKNQVSLWCLVKGFYPSDIAVEWESNGQPENNYKTTPPVLDSDGSFFLYSKLTVDKSRWQQGNVFSCSVMHEALHNHYTQKSLSLSP
heavy 2: QVQLVQSGAEVKKPGASVTVSCKASGYTFTDYEMHWIRQPPGEGLEWIGAIDPKTGDTAYSESFQDRVTLTADKSTSTAYMELSSLTSEDTAVYYCTRFYSYTYWGQGTLVTVSSASTKGPSVFPLAPSSKSTSGGTAALGCLVKDYFPEPVTVSWNSGALTSGVHTFPAVLQSSGLYSLSSVVTVPSSSLGTQTYICNVNHKPSNTKVDKKVEPKSCDKTHTCPPCPAPELLAGPDVFLFPPKPKDTLMISRTPEVTCVVVDVSHEDPEVKFNWYVDGVEVHNAKTKPREELYNSTYRVVSVLTVLHQDWLNGKEYKCKVSNKALPMPEEKTISKAKGQPREPQVYTLPPSRCELTKNQVSLSCAVKGFYPSDIAVEWESNGQPENNYKTTPPVLDSDGSFFLVSKLTVDKSRWQQGNVFSCSVMHEALHNHYTQKSLSLSP
light: DIVMTQSPLSLPVTPGEPASISCQASESLVHSNRNTYLHWYLQKPGQSPQLLIYKVSNRFSGVPDRFSGSGSGTDFTLKISRVEAEDVGVYYCSQNTHVPPTFGQGTKVEIERTVAAPSVFIFPPSDEQLKSGTASVVCLLNNFYPREAKVQWKVDNALQSGNSQESVTEQDSKDSTYSLSSTLTLSKADYEKHKVYACEVTHQGLSSPVTKSFNRGEC
notes: Heterodimerized anti-glypican-3 IgG1; also called Kn056/Hl055

How the values were obtained:
[1] = target: T4, FcγRIIIa type F extracellular domain with C-terminal His tag (human, UniProt P08637 17-208); assay: SPR (Biacore T100), antibody captured on antigen-peptide chip, FcγR analyte, 1:1 Langmuir fit
T4 construct: extracellular domain; also called FcgRIIIa F; FcγRIIIa F
Method: (§1) These antibodies were assessed for the binding activity to each FcγR according to the method described in Reference Example 2.
(§2) Analysis of interaction between objective antibody and the FcγR was carried out using Biacore T100 (GE Healthcare). HBS-EP+ (GE Healthcare) was used as the running buffer, and the measurement temperature was set to 25° C. Chips produced by immobilizing the antigen peptide by the amine coupling method to a Series S Sencor Chip CM5 (GE Healthcare), or alternatively, chips produced by allowing preliminarily biotinylated antigen peptides to interact with and immobilize onto a Series S Sensor Chip SA (certified) (GE Healthcare) were used. Antibodies of interest were captured onto an antigen peptide-immobilized chip, and allowed to interact to each FcγR diluted with running buffer. To regenerate and repeatedly use the chip, the antibodies captured on the chip were washed off by reacting 10 mM glycine-HCl, pH 1.5.
(§3) The FcγR-binding activity of each antibody was assessed primarily using as an indicator the FcγR-binding activity and dissociation constant for FcγR.

[2] = target: T5, FcγRIIIa type V extracellular domain with C-terminal His tag (human, UniProt P08637 17-208); assay: as above
T5 construct: extracellular domain; also called FcgRIIIa V; FcγRIIIa V
Method: as §1, §2, §3

[3] = target: T1, FcγRIIb extracellular domain with …; assay: as above
Method: as §1, §2, §3

[4] = target: T2, FcγRIIa type R extracellular domain …; assay: as above
Method: as §1, §2, §3

[5] = target: T6, FcγRIa extracellular domain with C-terminal His tag (human, UniProt P12314 16-292); assay: as above
T6 construct: extracellular domain; also called FcgRIa; FcgRI
Method: as §1, §2, §3

[6] = target: T3, FcγRIIa type H extracellular domain …; assay: as above
Method: as §1, §2, §3

[7] = target: T4, FcγRIIIa type F extracellular domain …; assay: SPR (Biacore T100), ratio of KD values
Method: as §1, §2, §3

[8] = target: T5, FcγRIIIa type V extracellular domain …; assay: SPR (Biacore T100), ratio of KD values
Method: as §1, §2, §3

[9] = target: T1, FcγRIIb extracellular domain with …; assay: SPR (Biacore T100), ratio of KD values
Method: as §1, §2, §3

[10] = target: T2, FcγRIIa type R extracellular domain …; assay: SPR (Biacore T100), ratio of KD values
Method: as §1, §2, §3

[11] = target: T6, FcγRIa extracellular domain with …; assay: SPR (Biacore T100), ratio of KD values
Method: as §1, §2, §3

[12] = target: T3, FcγRIIa type H extracellular domain …; assay: SPR (Biacore T100), ratio of KD values
Method: as §1, §2, §3

T4 sequence (P08637 17-208): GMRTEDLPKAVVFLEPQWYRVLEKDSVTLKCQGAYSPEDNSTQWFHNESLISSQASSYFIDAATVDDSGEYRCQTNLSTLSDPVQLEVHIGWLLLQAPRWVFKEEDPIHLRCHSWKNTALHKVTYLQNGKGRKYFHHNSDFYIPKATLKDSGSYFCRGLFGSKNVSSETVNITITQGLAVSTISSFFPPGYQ
T5 sequence (P08637 17-208 F176V): as the sequence (P08637 17-208) above, with F160V counted along it
T6 sequence (P12314 16-292): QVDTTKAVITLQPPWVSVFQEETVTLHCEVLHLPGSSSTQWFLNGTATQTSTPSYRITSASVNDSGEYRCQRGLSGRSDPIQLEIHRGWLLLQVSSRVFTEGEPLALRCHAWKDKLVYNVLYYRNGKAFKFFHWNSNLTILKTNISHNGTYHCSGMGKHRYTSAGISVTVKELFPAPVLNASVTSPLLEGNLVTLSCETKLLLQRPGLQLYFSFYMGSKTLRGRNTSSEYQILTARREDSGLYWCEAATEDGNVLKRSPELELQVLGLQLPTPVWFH

Binder	Kd [1] [nM]	Kd [2] [nM]	Kd [3] [nM]	Kd [4] [nM]	Kd [5] [nM]	Kd [6] [nM]	KD ratio [7]	KD ratio [8]	KD ratio [9]	KD ratio [10]	KD ratio [11]	KD ratio [12]
B1	3.7	1.3	110	4.8	0.019	11	419 fold (KD of GpH7-Kn033/GpH7-Hl033/GpL16-k0 divided by KD of this antibody)	170 fold (KD of GpH7-Kn033/GpH7-Hl033/GpL16-k0 divided by KD of this antibody)	34 fold (KD of GpH7-Kn033/GpH7-Hl033/GpL16-k0 divided by KD of this antibody)	154 fold (KD of GpH7-Kn033/GpH7-Hl033/GpL16-k0 divided by KD of this antibody)	3.7 fold (KD of GpH7-Kn033/GpH7-Hl033/GpL16-k0 divided by KD of this antibody)	52 fold (KD of GpH7-Kn033/GpH7-Hl033/GpL16-k0 divided by KD of this antibody)
B2	1.6	0.72	240	13	0.019	29	985 fold (KD of GpH7-Kn033/GpH7-Hl033/GpL16-k0 divided by KD of this antibody)	300 fold (KD of GpH7-Kn033/GpH7-Hl033/GpL16-k0 divided by KD of this antibody)	15 fold (KD of GpH7-Kn033/GpH7-Hl033/GpL16-k0 divided by KD of this antibody)	56 fold (KD of GpH7-Kn033/GpH7-Hl033/GpL16-k0 divided by KD of this antibody)	3.7 fold (KD of GpH7-Kn033/GpH7-Hl033/GpL16-k0 divided by KD of this antibody)	21 fold (KD of GpH7-Kn033/GpH7-Hl033/GpL16-k0 divided by KD of this antibody)
B3	1.4	0.66	260	17	0.023	30	1110 fold (KD of GpH7-Kn033/GpH7-Hl033/GpL16-k0 divided by KD of this antibody)	327 fold (KD of GpH7-Kn033/GpH7-Hl033/GpL16-k0 divided by KD of this antibody)	14 fold (KD of GpH7-Kn033/GpH7-Hl033/GpL16-k0 divided by KD of this antibody)	44 fold (KD of GpH7-Kn033/GpH7-Hl033/GpL16-k0 divided by KD of this antibody)	2.9 fold (KD of GpH7-Kn033/GpH7-Hl033/GpL16-k0 divided by KD of this antibody)	20 fold (KD of GpH7-Kn033/GpH7-Hl033/GpL16-k0 divided by KD of this antibody)
